Values of other authors as cited in article PMC5358871.

Biological target: Bfd (Pseudomonas aeruginosa) (UniProt Q9HY80)
Test: SPR, ITC

UniProt Q9HY80, sequence (Q9HY80 whole entry): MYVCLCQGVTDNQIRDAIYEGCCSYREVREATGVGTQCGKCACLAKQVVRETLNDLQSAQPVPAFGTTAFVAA

## BfrB (from UniProt Q9HY79)
  Kd: 3000 nM
